B1: Conjugate 49: anti-MUC16 sofituzumab+ Compd 401/Compd 101 (sofituzumab HC:4x pAMF iADC, 70% TLR agonist, DAR 3.9) (antibody, human IgG1, kappa, V domains shown)
VH: EVQLVESGGGLVQPGGSLRLSCAASGYSITNDYAWNWVRQAPGKGLEWVGYISYSGYTTYNPSLKSRFTISRDTSKNTLYLQMNSLRAEDTAVYYCARWTSGLDYWGQGTLVTVSS
VL: DIQMTQSPSSLSASVGDRVTITCKASDLIHNWLAWYQQKPGKAPKLLIYGATSLETGVPSRFSGSGSGTDFTLTISSLQPEDFATYYCQQYWTTPFTFGQGTKVEIKR
modifications: pAMF at Y180 and F404 conjugated to a mixture of Compound 401 and Compound 101
B2: Conjugate 1: anti-FolR1-Compd 101 ADC (FolRα antibody 1848-B10 ADC, DAR 4) (antibody, human IgG1, kappa, V domains shown)
VH: EVQLVESGGGLVQPGGSLRLSCAASGFNTTTKSIHWVRQAPGKGLEWVGEIYPRDGITDYADSVKGRFTISADTSKNTAYLQMNSLRAEDTAVYYCARGGWHWRSGYSYYLDYWGQGTLVTVSS
VL: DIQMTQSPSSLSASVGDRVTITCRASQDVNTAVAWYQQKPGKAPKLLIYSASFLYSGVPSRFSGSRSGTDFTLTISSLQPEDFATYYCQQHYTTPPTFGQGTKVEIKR
modifications: pAMF (para-azidomethyl-L-phenylalanine) at Y180 and F404 conjugated to Compound 101 (by Table 16; Tables 8 and 10 say Y180 and K42 sites)

What was measured:
[1] = molecular target: Muc16 on Muc16-positive OVCAR3 cells (UniProt Q8WXI7 1-14507, limits assumed); assay: cell-based or functional assay
[2] = molecular target: FolR1 (folate receptor alpha) on FolR1-positive KB or Igrov1 cells (UniProt P15328 25-234, limits assumed); assay: cell-based or functional assay
Sequence of FolR1 (folate receptor alpha) on FolR1-positive KB or Igrov1 cells (P15328 25-234 limits assumed): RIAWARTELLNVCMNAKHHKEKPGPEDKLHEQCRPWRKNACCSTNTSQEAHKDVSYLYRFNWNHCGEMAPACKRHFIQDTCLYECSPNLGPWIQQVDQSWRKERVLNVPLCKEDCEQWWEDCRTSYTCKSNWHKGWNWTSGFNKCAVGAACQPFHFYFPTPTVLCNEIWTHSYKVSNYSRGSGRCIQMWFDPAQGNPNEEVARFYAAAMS

Binder | Cell Killing on OVCAR3 (Muc16+), EC50 [1] | Cell Killing on FolR1+ Igrov1 Cells, EC50 [2]
B1 | 0.1 | 
B2 |  | 0.03 nM

From US20200405813A1 (SUTRO BIOPHARMA, published 2020)
